Our source for the stoichiometry N values is article PMC3169552.

By stoichiometry N is commonly meant a count of units in the complex or per binding partner.

Test [1] concerns the target His6-tagged vaccinia virus D13 (native D13) (vaccinia virus, Western Reserve strain). Kind of test: crystal structure.
For test [2] the target is unchanged. Kind of test: negative-stain electron microscopy.

Turning to “His6-tagged vaccinia virus D13 (native D13) (natural protein)”, the stoichiometry N in test [1] and in test [2] was 3 in each case.
